# Key:
# [1] = biological target: T1, ICAM-1 (BI-AB epitope) on cells from multiple-myeloma-related disorders (Homo sapiens, UniProt P05362); assay: BI-AB epitope expression on bone marrow cells of patients with multiple-myeloma-related disorders by flow cytometry; type: binding; conditions: FACS
# T1 construct: endogenous in cells; host or cells: primary bone marrow cells (plasma cells) from patients with plasmacytoma, plasma cell leukemia or light chain amyloidosis
# Source text: FIG. 1: BI-AB epitope expression in a cohort of patients with plasma cell disorders, consecutively analysed at Lund University Hospital, Sweden. • Pat no (Patient number); M (male); F (female); Ig (immunoglobulin class of M-component); M comp (monoclonal Ig component in serum); Skel. destr (number of skeletal destruction as measured by X-ray); n/a (not available); MM-cells (cells from multiple-myeloma-related disorders counted as % of all nucleated cells in bone marrow smears); ISS (International Staging System of MM); T (number of different MM treatment regimes before BI-AB analysis); Diagnosis; AL (amyloid light chain amyloidosis); PCL (plasma cell leukemia); PC (plasmacytoma); Expression level (BI-AB epitope expression level measured by FACS on cells from multiple-myeloma-related disorders: +++ (very highly positive), ++ (highly positive), + (positive) or − (negative); Positive MM cells (BI-AB epitope positive cells from multiple-myeloma-related disorders as measured by FACS).
# We evaluated expression of the BI-AB epitope on bone marrow cells in patients with multiple-myeloma-related disorders (plasmacytoma, plasma cell leukemia, and light chain amyloidosis) by flow cytometry (FIG. 1).
# Cells from multiple-myeloma-related disorders were identified using fluorescent antibodies against the following surface antigens CD38, CD138, CD45 and CD56 according to European Myeloma Network guidelines on multiparametric flow cytometry in MM (Rawstron et al., 2008) and confirming monoclonal cells from multiple-myeloma-related disorders with intracellular staining of lambda and kappa light chains.
# [2] = biological target: T2, Intercellular Adhesion Molecule-1 (ICAM-1) (human, UniProt P05362 28-532); assay: flow cytometry (FACS) on bone marrow plasma cells of patients with PC, PCL or AL
# T2 construct: whole, on cells; Endogenous ICAM-1 on primary patient cells; also called CD54
# T2 sequence (P05362 28-532): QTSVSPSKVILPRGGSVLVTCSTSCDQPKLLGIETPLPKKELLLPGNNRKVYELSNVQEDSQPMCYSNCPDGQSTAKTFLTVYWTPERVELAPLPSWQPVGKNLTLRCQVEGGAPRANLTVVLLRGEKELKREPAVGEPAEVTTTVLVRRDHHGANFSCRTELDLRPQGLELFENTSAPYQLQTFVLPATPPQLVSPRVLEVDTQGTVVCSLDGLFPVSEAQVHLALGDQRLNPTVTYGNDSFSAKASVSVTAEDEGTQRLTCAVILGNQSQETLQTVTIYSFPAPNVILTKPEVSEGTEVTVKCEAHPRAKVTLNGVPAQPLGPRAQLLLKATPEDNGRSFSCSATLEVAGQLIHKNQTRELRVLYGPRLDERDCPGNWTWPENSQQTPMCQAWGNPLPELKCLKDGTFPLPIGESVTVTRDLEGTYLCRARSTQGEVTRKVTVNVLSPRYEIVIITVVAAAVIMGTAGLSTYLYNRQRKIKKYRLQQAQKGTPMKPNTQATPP
# T1 sequence (P05362 28-532): as above
molecule,measurement,setting,value
"BI-AB antibody (antibody, V domains shown, It says the antibody was described previously in WO 2007/112110; also called exemplary antibody of the invention) VH: EVQLLESGGGLVQPGGSLRLSCAASGFTFSNAWMSWVRQAPGKGLEWVAFIWYDGSNKYYADSVKGRFTISRDNSKNTLYLQMNSLRAEDTAVYYCARYSGWYFDYWGQGTLVTVSS VL: QSVLTQPPSASGTPGQRVTISCTGSSSNIGAGYDVHWYQQLPGTAPKLLIYDNNNRPSGVPDRFSGSKSGTSASLAISGLRSEDEADYYCQSYDSSLSAWLFGGGTKLTVLG",BI-AB epitope positive cells from multiple-myeloma-related disorders,"[1]; all patients with plasmacytoma, plasma cell leukemia or light chain amyloidosis",expressed the BI-AB epitope on most cells
same,median BI-AB epitope expression level relative to normal B cells from the same patients,[1]; cells from multiple-myeloma-related disorders vs normal B cells,10 times higher
same,BI-AB epitope expression level on cells from multiple-myeloma-related disorders,[1]; patient bone marrow cells,very highly expressed
same,binding result,[2],binds

# — patent US20140242072A1, “ANTI-ICAM-1 ANTIBODIES TO TREAT MULTIPLE-MYELOMA RELATED DISORDERS” (BIOINVENT INTERNATIONAL AB, priority 2011, published 2014)
